The assay concerns the target alcohol dehydrogenase (ADH).

B1: CryS96 (αB-crystallin peptide fused with ELP S96) (protein)
chain: GDRFSVNLDVKHFSPEELKVKGVPGSGVPGSGVPGSGVPGSGVPGSGVPGSGVPGSGVPGSGVPGSGVPGSGVPGSGVPGSGVPGSGVPGSGVPGSGVPGSGVPGSGVPGSGVPGSGVPGSGVPGSGVPGSGVPGSGVPGSGVPGSGVPGSGVPGSGVPGSGVPGSGVPGSGVPGSGVPGSGVPGSGVPGSGVPGSGVPGSGVPGSGVPGSGVPGSGVPGSGVPGSGVPGSGVPGSGVPGSGVPGSGVPGSGVPGSGVPGSGVPGSGVPGSGVPGSGVPGSGVPGSGVPGSGVPGSGVPGSGVPGSGVPGSGVPGSGVPGSGVPGSGVPGSGVPGSGVPGSGVPGSGVPGSGVPGSGVPGSGVPGSGVPGSGVPGSGVPGSGVPGSGVPGSGVPGSGVPGSGVPGSGVPGSGVPGSGVPGSGVPGSGVPGSGVPGSGVPGSGVPGSGVPGSGVPGSGVPGSGVPGSGVPGSGVPGSGVPGSGVPGSGVPGSGVPGSGVPGSGY
For the molecule B1, the ADH aggregation (optical density at 360 nm, 48° C., 2 h) (% decrease in ADH aggregation) was 61.

The values above are taken from patent publication US12655198B2.
